Assay results published in the supplement of paper PMC7877785.
± gives the uncertainty stated by the source.

Assay: self-splicing fitness, log relative to wild type (ln ratio); higher = more splicing; Tetrahymena group I intron in knt gene, E. coli kanamycin selection, DiMSum; sequences stand for … in CUCUCU…GGAGGGAAAAGUUAUCAGGCAUGCACCUGGUAGCUAGUCUUUAAACCAAUAGAUUGCAUCGGUUUAAAAGGCAAGACCGUCAAAUUGCGGGAAAGGGGUCAACAGCCGUUCAGUACCAAGUCUCAGGGGAAACUUUGAGAUGGCCUUGCAAAGGGUAUGGUAAUAAGCUGACGGACAUGGUCCUAACCACGCAGCCAAGUCCUAAGUCAACAGAUCUUCUGUUGAUAUGGAUGCAGUUCACAGACUAAAUGUCGGUCGGGGAAGAUGUAUUCUUCUCAUAAGAUAUAGUCGGACCUCUCCUUAAUGGGAGCUAGCGGAUGAAGUGAUGCAACACUGGAGCCGCUGGGAACUAAUUUGUAUGCGAAAGUAUAUUGAUUAGUUUUGGAGUACUCGUGGUCG
In short: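 Colonies from six replicate transformations of E. coli BL21(DE3) were pooled and amplicon-sequenced on an Illumina HiSeq 2500. The library placed an intron with all eight P1ex-region nucleotides randomised inside the knt kanamycin-resistance gene on pET-22b(+), and cells grew overnight at 37°C or 30°C on LB agar with or without 25 μg/mL kanamycin (plus 100 μg/mL carbenicillin, 50 μM IPTG, 0.2% rhamnose). Fitness is the DiMSum error-weighted combination of wild-type-normalised replicate fold changes, kanamycin versus none.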

| Sequence | self-splicing fitness (ln) (30 °C) | self-splicing fitness (ln) (37 °C) |
| --- | --- | --- |
| GCUGAGCAAUAUUACGGACU | -2.6 ± 0.36 | -1.36 ± 0.24 |
| GCUGAGCAAUAUUACGGUAA | -3.07 ± 0.29 | -2.44 ± 0.23 |
| GCUGAGCAAUAUUACGGUAU | -2.63 ± 0.2 | -2.41 ± 0.2 |
| GCUGAGCAAUAUUACGGUCC | -2.99 ± 0.28 | -0.889 ± 0.26 |
| GCUGAGCAAUAUUACGGUCG | -2.59 ± 0.17 | -2.24 ± 0.22 |
| GCUGAGCAAUAUUACGGUUA | -1.74 ± 0.14 | -0.208 ± 0.1 |
| GCUGAGCAAUAUUACGUAUA | -3.69 ± 0.26 | -2.22 ± 0.29 |
| GCUGAGCAAUAUUACGUCAC | -2.4 ± 0.37 | -1.66 ± 0.36 |
| GCUGAGCAAUAUUACGUGUU | -3.4 ± 0.2 | -2.37 ± 0.21 |
| GCUGAGCAAUAUUACGUUCC | -1.48 ± 0.2 | -1.84 ± 0.35 |
| GCUUAGCAAUAUUACGAAUA | -2.05 ± 0.25 | -0.645 ± 0.18 |
| GCUUAGCAAUAUUACGAAUG | -1.79 ± 0.1 | -1.33 ± 0.13 |
| GCUUAGCAAUAUUACGAGAU | -1.36 ± 0.14 | -1.02 ± 0.12 |
| GCUUAGCAAUAUUACGAUCC | -0.0566 ± 0.1 | 0.226 ± 0.13 |
| GCUUAGCAAUAUUACGCACC | -0.796 ± 0.13 | 0.115 ± 0.16 |
| GCUUAGCAAUAUUACGCUGU | -2.25 ± 0.18 | -1.25 ± 0.18 |
| GCUUAGCAAUAUUACGGAUG | -1.71 ± 0.14 | -1.05 ± 0.13 |
| GCUUAGCAAUAUUACGGAUU | -1.15 ± 0.1 | -0.911 ± 0.11 |
| GCUUAGCAAUAUUACGGCGU | -0.354 ± 0.1 | -0.748 ± 0.11 |
| GCUUAGCAAUAUUACGGGCG | -1.44 ± 0.082 | -0.621 ± 0.098 |
| GCUUAGCAAUAUUACGGUUG | -3.95 ± 0.18 | -1.91 ± 0.12 |
| GCUUAGCAAUAUUACGUACC | -0.204 ± 0.2 | 1.1 ± 0.21 |
| GCUUAGCAAUAUUACGUAUC | -1.32 ± 0.083 | 0.415 ± 0.093 |
| GCUUAGCAAUAUUACGUCAG | -2.36 ± 0.22 | – |
| GCUUAGCAAUAUUACGUGAG | -1.45 ± 0.07 | -1.2 ± 0.071 |

| Sequence | self-splicing fitness (ln) (30 °C) | self-splicing fitness (ln) (37 °C) |
| --- | --- | --- |
| GCUUAGCAAUAUUACGUGCG | -1.23 ± 0.09 | -0.6 ± 0.12 |
| GCUUAGCAAUAUUACGUGGG | -1.53 ± 0.093 | -1.72 ± 0.1 |
| GCUUAGCAAUAUUACGUGGU | -2.81 ± 0.15 | -1.93 ± 0.16 |
| GCUUAGCAAUAUUACGUUCA | -1.01 ± 0.15 | -1.21 ± 0.17 |
| GCUUAGCAAUAUUACGUUGC | -2.46 ± 0.15 | -0.535 ± 0.12 |
| GGAAAGCAAUAUUACGAAUA | -2.36 ± 0.22 | -1.19 ± 0.19 |
| GGAAAGCAAUAUUACGAAUG | -3.53 ± 0.29 | -0.816 ± 0.25 |
| GGAAAGCAAUAUUACGACAC | -0.204 ± 0.15 | -0.206 ± 0.2 |
| GGAAAGCAAUAUUACGAUAA | -1.32 ± 0.14 | -0.198 ± 0.16 |
| GGAAAGCAAUAUUACGAUUG | -3.56 ± 0.28 | -1.82 ± 0.23 |
| GGAAAGCAAUAUUACGCACC | -1.43 ± 0.21 | – |
| GGAAAGCAAUAUUACGCACG | -1.16 ± 0.19 | 0.0479 ± 0.17 |
| GGAAAGCAAUAUUACGCACU | -1.35 ± 0.22 | -1.57 ± 0.3 |
| GGAAAGCAAUAUUACGCAGC | -2.07 ± 0.22 | -1.53 ± 0.23 |
| GGAAAGCAAUAUUACGCGCA | -0.291 ± 0.16 | -0.139 ± 0.17 |
| GGAAAGCAAUAUUACGGAGG | -3.5 ± 0.24 | -2.31 ± 0.21 |
| GGAAAGCAAUAUUACGGGGA | -2.87 ± 0.15 | -2.9 ± 0.26 |
| GGAAAGCAAUAUUACGGGGC | -3.54 ± 0.28 | -0.864 ± 0.21 |
| GGAAAGCAAUAUUACGGGUA | -1.86 ± 0.17 | -1.32 ± 0.15 |
| GGAAAGCAAUAUUACGGUGA | -1.01 ± 0.15 | -0.6 ± 0.16 |
| GGAAAGCAAUAUUACGGUGG | -1.84 ± 0.16 | -1.53 ± 0.16 |
| GGAAAGCAAUAUUACGUAGC | -2.63 ± 0.22 | -2.34 ± 0.23 |
| GGAAAGCAAUAUUACGUCGU | -0.732 ± 0.093 | -0.254 ± 0.12 |
| GGAAAGCAAUAUUACGUUUC | -3.04 ± 0.21 | -2.5 ± 0.28 |
| GGAAAGCAAUAUUACGUUUU | -3.05 ± 0.14 | -2.18 ± 0.18 |

| Sequence | self-splicing fitness (ln) (30 °C) | self-splicing fitness (ln) (37 °C) |
| --- | --- | --- |
| GGACAGCAAUAUUACGACGC | -0.126 ± 0.065 | 0.658 ± 0.11 |
| GGACAGCAAUAUUACGACGU | -0.177 ± 0.06 | 0.587 ± 0.075 |
| GGACAGCAAUAUUACGAGUC | -4.31 ± 0.2 | -2.75 ± 0.15 |
| GGACAGCAAUAUUACGAUUC | -0.338 ± 0.063 | 0.353 ± 0.078 |
| GGACAGCAAUAUUACGCACA | -0.778 ± 0.09 | 0.0888 ± 0.1 |
| GGACAGCAAUAUUACGCAGG | -1.45 ± 0.1 | -0.578 ± 0.11 |
| GGACAGCAAUAUUACGCCCG | -0.653 ± 0.24 | -0.591 ± 0.28 |
| GGACAGCAAUAUUACGCCGU | -4.23 ± 0.46 | -3.05 ± 0.26 |
| GGACAGCAAUAUUACGCGCC | -2.93 ± 0.2 | – |
| GGACAGCAAUAUUACGCGGA | -0.693 ± 0.081 | 0.416 ± 0.074 |
| GGACAGCAAUAUUACGCGUU | -3.68 ± 0.16 | -2.62 ± 0.2 |
| GGACAGCAAUAUUACGGCAA | -1.32 ± 0.12 | -0.645 ± 0.12 |
| GGACAGCAAUAUUACGGCCA | -0.721 ± 0.077 | -0.225 ± 0.1 |
| GGACAGCAAUAUUACGGGCU | -1.89 ± 0.14 | -0.458 ± 0.13 |
| GGACAGCAAUAUUACGGGGG | -2.84 ± 0.13 | -3.18 ± 0.22 |
| GGACAGCAAUAUUACGUAAU | -0.0161 ± 0.056 | -0.0127 ± 0.07 |
| GGACAGCAAUAUUACGUAGA | -0.242 ± 0.08 | -0.126 ± 0.091 |
| GGACAGCAAUAUUACGUCUA | -0.35 ± 0.081 | -0.114 ± 0.097 |
| GGACAGCAAUAUUACGUGCC | -3.78 ± 0.19 | -2.02 ± 0.21 |
| GGACAGCAAUAUUACGUUAU | -0.282 ± 0.046 | 0.102 ± 0.066 |
| GGACAGCAAUAUUACGUUGC | -4.57 ± 0.24 | -2.83 ± 0.18 |
| GGAGAGCAAUAUUACGAAUU | -3.13 ± 0.49 | -2.27 ± 0.4 |
| GGAGAGCAAUAUUACGAGUU | -4 ± 0.35 | – |
| GGAGAGCAAUAUUACGAUGC | -2.8 ± 0.33 | -0.975 ± 0.22 |
| GGAGAGCAAUAUUACGCAAG | – | -3.71 ± 0.46 |

| Sequence | self-splicing fitness (ln) (30 °C) | self-splicing fitness (ln) (37 °C) |
| --- | --- | --- |
| GGAGAGCAAUAUUACGCUUG | -3.1 ± 0.16 | -2.01 ± 0.21 |
| GGAGAGCAAUAUUACGGAGG | -2.93 ± 0.48 | -0.819 ± 0.23 |
| GGAGAGCAAUAUUACGGCCA | -2.34 ± 0.36 | -1.21 ± 0.35 |
| GGAGAGCAAUAUUACGGGAA | -2.58 ± 0.33 | -2.58 ± 0.38 |
| GGAGAGCAAUAUUACGGGAU | -4.2 ± 0.36 | -3.23 ± 0.35 |
| GGAGAGCAAUAUUACGGGCG | -3.79 ± 0.29 | -2.37 ± 0.26 |
| GGAGAGCAAUAUUACGGGGC | -3.01 ± 0.27 | -2.71 ± 0.44 |
| GGAGAGCAAUAUUACGGGGG | – | -1.49 ± 0.46 |
| GGAGAGCAAUAUUACGGUCU | – | -2.31 ± 0.48 |
| GGAGAGCAAUAUUACGUAAC | -1.69 ± 0.11 | -0.596 ± 0.15 |
| GGAGAGCAAUAUUACGUAGU | -1.91 ± 0.19 | -2.15 ± 0.3 |
| GGAUAGCAAUAUUACGACCU | 0.689 ± 0.32 | 0.93 ± 0.25 |
| GGAUAGCAAUAUUACGCCAG | -2.63 ± 0.32 | -0.526 ± 0.34 |
| GGAUAGCAAUAUUACGCGCG | -1.25 ± 0.13 | 0.793 ± 0.15 |
| GGAUAGCAAUAUUACGCUCU | -1.63 ± 0.26 | – |
| GGAUAGCAAUAUUACGGGGU | – | -3.01 ± 0.35 |
| GGAUAGCAAUAUUACGGGUU | -2.16 ± 0.096 | -1.42 ± 0.12 |
| GGAUAGCAAUAUUACGUAGC | -3.55 ± 0.2 | -1.06 ± 0.16 |
| GGAUAGCAAUAUUACGUCUA | -0.367 ± 0.087 | -0.516 ± 0.088 |
| GGAUAGCAAUAUUACGUGUG | -1.91 ± 0.12 | -1.19 ± 0.14 |
| GGAUAGCAAUAUUACGUUAC | -1.87 ± 0.12 | -1.26 ± 0.15 |
| GGCAAGCAAUAUUACGAAUA | -1.45 ± 0.079 | -0.797 ± 0.083 |
| GGCAAGCAAUAUUACGAGCU | -2.69 ± 0.18 | -1.67 ± 0.23 |
